Broadly, the IC50 is the point on the concentration scale where inhibition reaches its midpoint.

Some results are limits rather than exact numbers.

The record followed here is patent US20250320281A1.

Holding throughout (assay): cell-based or functional assay
The target in assay [1] is HIV-1 Env of isolate AC10 (clade B pseudovirus) (HIV-1).
The target in assay [2] is HIV-1 Env of isolate CAP45 (clade C pseudovirus) (HIV-1).
The target of assay [3] is HIV-1 Env of isolate Du172 (clade C pseudovirus) (HIV-1).
Assay [4] addresses HIV-1 Env of isolate REJ04541 (clade B pseudovirus) (HIV-1).
The target of assay [5] is HIV-1 Env of isolate THRO.18 (clade B pseudovirus) (HIV-1).
Assay [6] concerns the target HIV-1 Env of isolate TR0.11 (clade B pseudovirus) (HIV-1).
Assay [7] addresses HIV-1 Env of isolate ZM233 (clade C pseudovirus) (HIV-1).
For assay [8], the target named is HIV-1 94UG103 envelope glycoprotein (Env) on pseudovirus (HIV-1 isolate 94UG103 (clade A)).
Assay [9] deals with HIV-1 MGRM-C-027 envelope glycoprotein (Env) on pseudovirus (HIV-1 isolate MGRM-C-027 (clade C)).
The target of assay [10] is HIV-1 MGRM-D-018 envelope glycoprotein (Env) on pseudovirus (HIV-1 isolate MGRM-D-018 (clade D)).
Assay [11] deals with HIV-1 92TH021 Env (HIV-1).
Assay [12] addresses HIV-1 92UG005 Env (HIV-1).
For a further assay, the target named is HIV-1 APV6 Env (HIV-1).
Assay [13] concerns the target HIV-1 MGRM-AG-005 Env (HIV-1).
Assay [14] addresses HIV-1 MGRM-D-018 Env (HIV-1).
The next assay deals with HIV-1 NL43 Env (HIV-1).
For assay [15], the target named is HIV-1 93IN905 Env (pseudovirus) (HIV-1 isolate 93IN905 (clade C)).
In assay [16] the target is HIV-1 MGRM-AG-005 Env (pseudovirus) (HIV-1 isolate MGRM-AG-005 (clade AG)).
The target of assay [17] is HIV-1 MGRM-C-026 Env (pseudovirus) (HIV-1 isolate MGRM-C-026 (clade C)).
For assay [18], the target named is HIV-1 MGRM-C-028 Env (pseudovirus) (HIV-1 isolate MGRM-C-028 (clade C)).
The target in assay [19] is HIV-1 MGRM-D-018 Env (pseudovirus) (HIV-1 isolate MGRM-D-018 (clade D)).
The target of assay [20] is HIV-1 Env of isolate MG RM-D-029 (clade D), on pseudovirus (HIV-1).
For assay [21], the target named is HIV-1 Env of isolate MGRM-Chronic-B-011 (HIV-1).
Assay [22] concerns the target HIV-1 Env of isolate MGRM-F1-014 (clade F), on pseudovirus (HIV-1).
Assay [23] has as its target HIV-1 Env of isolate MGRM-F1-015 (clade F), on pseudovirus (HIV-1).
In assay [24] the target is HIV-1 Env of isolate MGRM-F1-017 (clade F pseudovirus) (HIV-1).
Assay [25] concerns the target HIV-1 Env of isolate MGRM-F1-022 (clade F pseudovirus) (HIV-1).
The target in assay [26] is HIV-1 Env of pseudovirus MGRM-A-001 (subtype A) (HIV-1).
In assay [27] the target is HIV-1 Env of pseudovirus MGRM-A-002 (subtype A) (HIV-1).
For assay [28], the target named is HIV-1 Env of isolate MG RM-D-026 (HIV-1).
In assay [29] the target is HIV-1 Env of isolate MG RM-D-029 (HIV-1).
Assay [30] addresses HIV-1 Env of isolate MGRM-F1-004 (HIV-1).
Assay [31] has as its target HIV-1 Env of pseudovirus MGRM-AE-007 (subtype AE) (HIV-1).
The target in assay [32] is HIV-1 Env of pseudovirus MGRM-AG-002 (subtype AG) (HIV-1).
Assay [33] has as its target HIV-1 Env of pseudovirus MGRM-AG-003 (subtype AG) (HIV-1).
In assay [34] the target is HIV-1 Env of pseudovirus MGRM-AG-009 (subtype AG) (HIV-1).

1443_C16 (PG16) (TCN-116) (antibody), sequence (VH): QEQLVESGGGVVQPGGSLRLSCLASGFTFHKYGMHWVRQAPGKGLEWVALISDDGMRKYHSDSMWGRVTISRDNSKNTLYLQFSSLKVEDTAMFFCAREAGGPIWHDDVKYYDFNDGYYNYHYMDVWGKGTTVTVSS
1443_C16 (PG16) (TCN-116) (antibody), sequence (VL): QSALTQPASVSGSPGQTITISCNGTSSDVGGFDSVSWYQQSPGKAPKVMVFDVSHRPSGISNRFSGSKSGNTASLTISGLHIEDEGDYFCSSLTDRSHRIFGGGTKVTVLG

Regarding 1443_C16 (PG16) (TCN-116) (antibody), the IC50 (neutralization, TZM-bl pseudovirus assay) was under 0.01 µg/mL in [1]; under 0.01 µg/mL in assay [2]; under 0.01 µg/mL in [3]; under 0.01 µg/mL in assay [4]; 2.19 µg/mL in assay [5]; 3.61 µg/mL in [6]. For the same substance, in [7], the IC50 (neutralization, TZM-bl pseudovirus assay) is under 0.01 µg/mL.

Consider 1496_C09 (PG9) (TCN-109) (antibody), for which, in assay [8], the neutralization IC50 stood at 0.31 µg/mL, the neutralization IC80 is 1.95 µg/mL and the neutralization IC90 amounted to 5.54 µg/mL. In addition, the neutralization IC50 in assay [9] is 2.45 µg/mL. In assay [10], this substance came in with a neutralization IC50 of 0.0444 µg/mL, a neutralization IC80 of 0.18 µg/mL, a neutralization IC90 of 0.43 µg/mL and a neutralization IC95 of 1.05 µg/mL.

Regarding 4877_D15 (PGT-122) (antibody), the Neutralization by PGT-122, IC50 was over 10 µg/mL in [11]; over 10 µg/mL in assay [12]; 0.0851 µg/mL in the assay with HIV-1 APV6 Env (HIV-1); over 10 µg/mL in assay [13]; 0.0115 µg/mL in assay [14]; over 10 µg/mL with HIV-1 NL43 Env (HIV-1). Moreover, the Neutralization by PGT-122, IC80 was over 10 µg/mL in assay [11]; over 10 µg/mL in [12]; 0.351 µg/mL with HIV-1 APV6 Env (HIV-1); over 10 µg/mL in assay [13]; 0.035 µg/mL in [14]; over 10 µg/mL with HIV-1 NL43 Env (HIV-1). For the same substance, the Neutralization by PGT-122, IC90 in assay [11] was over 10 µg/mL; in assay [12] it was over 10 µg/mL; in the assay with HIV-1 APV6 Env (HIV-1), 0.779 µg/mL; in [13], over 10 µg/mL; in assay [14] it was 0.0674 µg/mL; in the assay with HIV-1 NL43 Env (HIV-1) it was over 10 µg/mL. In addition, the Neutralization by PGT-122, IC95 in assay [11] was over 10 µg/mL; in [12] it was over 10 µg/mL; with HIV-1 APV6 Env (HIV-1), 1.55 µg/mL; in assay [13], over 10 µg/mL; in [14], 0.125 µg/mL; with HIV-1 NL43 Env (HIV-1), over 10 µg/mL.

In the case of 5123_A06 (PGT-125) (antibody), the Neutralization by PGT-125, IC50 in assay [15] is 0.0137 µg/mL; in [16] it was over 10 µg/mL; in assay [17], 0.0106 µg/mL; in assay [18], 5.78 µg/mL; in [19] it was 0.0382 µg/mL. Moreover, the Neutralization by PGT-125, IC80 is 0.0494 µg/mL in assay [15]; over 10 µg/mL in [16]; 0.035 µg/mL in [17]; over 10 µg/mL in assay [18]; 0.144 µg/mL in assay [19]. The Neutralization by PGT-125, IC90 in assay [15] is 0.106 µg/mL; in assay [16], over 10 µg/mL; in assay [17], 0.0705 µg/mL; in assay [18], over 10 µg/mL; in assay [19], 0.339 µg/mL. The Neutralization by PGT-125, IC95 in assay [15] was 0.216 µg/mL; in [16] it was over 10 µg/mL; in assay [17] it was 0.134 µg/mL; in assay [18], over 10 µg/mL; in [19] it was 0.892 µg/mL.

Consider PGV04 (antibody), for which the IC50 (µg/mL), pseudovirus neutralization turned out to be 1.56 µg/mL in assay [20]; 0.497 µg/mL in [21]; 0.02 µg/mL in assay [22]; 0.179 µg/mL in assay [23]; 2.38 µg/mL in assay [24]; 0.072 µg/mL in assay [25]. The IC50, pseudovirus neutralization in assay [26] came out at 6.78 µg/mL; in [27], 0.093 µg/mL.

For the substance VRC01 (antibody), the IC50 in assay [28] was found to be 0.435 µg/mL; in assay [29], 3.22 µg/mL; in assay [30], 0.305 µg/mL. For the same substance, the IC50, pseudovirus neutralization in assay [31] was 0.835 µg/mL; in assay [32] it was 0.95 µg/mL; in [33], 0.043 µg/mL; in assay [34] it was over 50 µg/mL.
